Data as given in patent US5145783A, “Glyphosate-tolerant 5-endolpyruvyl-3-phosphoshikimate synthase” (Monsanto Company, priority 1990, dated 1992).

Molecular target: T1, wild-type EPSP synthase of tomato (Solanum lycopersicum, UniProt P10748)
T1 construct: ATG translational initiation codon at the site predicted to be the start of the mature enzyme for in vitro expression in E. Coli; initiator methionine (ATG in an engineered NcoI site) (N); made in house; host or cells: E. coli SR481 (aroA mutant) harboring pMON9719, desalted cell extract
Test: EPSP synthase activity assay, extracts of E. coli SR481 harboring pMON9719
Type: biochemical
Details: cells containing pMON9719, no glyphosate
Protocol: E. coli SR481 cells harboring pMON9719 or pMON9729 were grown under conditions which induce the expression of the RecA promoter. The cells were lysed and the extracts were assayed for EPSP synthase activity.
Specifically, the bacterial cell paste was washed twice with 0.9% saline, suspended in buffer (100 mM Tris-HCl, 5 mM dithiothreitol, 1 mM EDTA, 10% glycerol and 1 mM benzamidine HCl) passed twice through the French Pressure Cell at 1000 psi. The cell abstract was separated from the cells by centrifuging at 15,000×gravity for 10 mins. at 5° C. It was desalted using Sephadex G-50 (Pharmacia, Piscataway, N.J.). The desalted extract was assayed for EPSP synthase activity as follows:
To an assay mix (40 μl) containing shikimate-3-phosphate (2 mM), ^14 C-phosphoenolpyruvate (1 mM, 1.2 mCi/mmol), ammonium molybdate (0.1 mM), potassium fluoride (5 mM), in 50 mM HEPES-KOH, pH 7, was added 10 μl of the extract and incubated at 25° C. for 2 mins. […] The radioactivity of the eluent was monitored using a Radiometric Flo-One Beta Instrument. […] The EPSP synthase activity was determined by measurement of the conversion of ^14 C-PEP to ^14 […], both of which are resolved under the above conditions of chromatography. The protein content of the extract was determined by the method of Bradford (Biorad Labs, Calif.). […]

B1: pMON9719: wild-type EPSP synthase of tomato expressed in E. coli SR481 under the recA promoter, cell extract (protein, UniProt P10748 77-520, looked up)
3-phosphoshikimate …: KPHEIVLXPIKDISGTVKLPGSKSLSNRILLLAALSEGRTVVDNLLSSDDIHYMLGALKTLGLHVEDDNENQRAIVEGCGGQFPVGKKSEEEIQLFLGNAGTAMRPLTAAVTVAGGHSRYVLDGVPRMRERPIGDLVDGLKQLGAEVDCSLGTNCPPVRIVSKGGLPGGKVKLSGSISSQYLTALLMAAPLALGDVEIEIIDKLISVPYVEMTLKLMERFGVFVEHSSGWDRFLVKGGQKYKSPGKAFVEGDASSASYFLAGAAVTGGTVTVEGCGTSSLQGDVKFAEVLEKMGAEVTWTENSVTVKGPPRNSSGMKHLRAIDVNMNKMPDVAMTLAVVALFADGPTTIRDVASWRVKETERMIAICTELRKLGATVVEGSDYCIITPPEKLNVTEIDTYDDHRMAMAFSLAACADVPVTIKNPGCTRKTFPDYFEVLQKYSKH
modifications: X: residue not identified in the source
notes: wild-type EPSP synthase of tomato expressed in E. coli SR481 under the recA promoter, cell extract
EPSP synthase activity (specific activity of the extract): about 1600 nanomoles of EPSP synthase formed/minute/mg protein
